# Experiments:
# Assay in all cases: SEC
# [1] = target: mtDod-msfGFP-H8 (Mycobacterium tuberculosis | not stated)
# [2] = target: SpyT-mtDod-SnpT (Mycobacterium tuberculosis)
# [3] = target: SpyT-PAS2-mtDod (Mycobacterium tuberculosis)
# [4] = target: mtDod-GSG-Lys (Mycobacterium tuberculosis)
# [5] = target: SpyT-mtDod (Mycobacterium tuberculosis)
# [6] = target: mtDod-PAS-Met (Mycobacterium tuberculosis)
# [7] = target: mtDod-SpyT (Mycobacterium tuberculosis)
# [8] = target: mtDod-PAS2-SpyT (Mycobacterium tuberculosis)
substance,measurement,setting,value
mtDod-msfGFP-H8,stoichiometry N,[1],12
SpyT-mtDod-SnpT,stoichiometry N,[2],12
SpyT-PAS2-mtDod,stoichiometry N,[3],12
mtDod-GSG-Lys,stoichiometry N,[4],12
SpyT-mtDod,stoichiometry N,[5],12
mtDod-PAS-Met,stoichiometry N,[6],12
mtDod-SpyT,stoichiometry N,[7],12
mtDod-PAS2-SpyT,stoichiometry N,[8],12
